The text below walks through data of patent publication US20090004680A1.

This assay has as its target Mouse synaptosomes (BoNT/A acceptor on a mouse synaptosome preparation).

“Active BoNT/A (botulinum neurotoxin type A) (from UniProt P0DPI0 2-1296)” came in with a maximum percent inhibition of 78%.
